Among the data in paper PMC3514331, “Structure-function analysis of Methanobacterium thermoautotrophicum RNA ligase – engineering a thermostable ATP independent enzyme” (BMC Molecular Biology, 2012) are Km values, retold here.

Substrate in the data set: Nc1ncnc2c1ncn2[C@@H]1O[C@H](COP(=O)(O)OP(=O)(O)OP(=O)(O)O)[C@@H](O)[C@H]1O
The experiment in a line: purified protein. It counts as biochemical, Methanothermobacter thermautotrophicus. To be noted: 10 mM Mg2+, 30 min, covalent enzyme-AMP formation, labelled compound.

B1: MthRnl (Methanobacterium thermoautotrophicum RNA ligase) (Methanothermobacter thermautotrophicus str. Delta H) (protein)
chain: MNSMNSDIPFDLIQERTGVPSSRLKVAFARGSLRLLESAGMQALLFKKPLGDLEAGTVIYLGDETEVIRGFPKIRRTLLLSPTIQEHFRDRVAVEEKMNGYNVRIACLSSGETVALTRGGHVCPFTTRKAQELLDLSEFFREHPDLVICGEMIGRDNPYVSQDYPEVGPLGFRVFDLREKNTNRPLPVEERRALLDSYGLPNVRLFGVYPIEEAASEVADIIRALGMAGREGVVMKDPSMEVPPLKYTSSQAHARELAYAFSYPFDFGRPFFFSRVIREGFQAYELDESDDETRERARRLGEAIIYPMLERIKSISAGEAAYEDTVIDVEDREAAEEFIRHLVRLGVSATLADYRDGRATIRRFYQSTTDRINNYLKGGLY
notes: full-length codon-optimized ORF, N-terminal His10 tag (pET16b), expressed in E. coli, tag cleavage not mentioned; homodimer, about 46 kDa per monomer (10 pmol = 460 ng)
As a reminder, the Km is the substrate concentration at which the rate is half of its maximum. For the protein B1, the Km (10 mM bis-Tris propane pH 7.0, 65°C) came to 0.9 µM.

B2: MthRnl (Methanobacterium thermoautotrophicum RNA ligase) (Methanothermobacter thermautotrophicus str. Delta H; K246A) (protein)
chain: MNSMNSDIPFDLIQERTGVPSSRLKVAFARGSLRLLESAGMQALLFKKPLGDLEAGTVIYLGDETEVIRGFPKIRRTLLLSPTIQEHFRDRVAVEEKMNGYNVRIACLSSGETVALTRGGHVCPFTTRKAQELLDLSEFFREHPDLVICGEMIGRDNPYVSQDYPEVGPLGFRVFDLREKNTNRPLPVEERRALLDSYGLPNVRLFGVYPIEEAASEVADIIRALGMAGREGVVMKDPSMEVPPLAYTSSQAHARELAYAFSYPFDFGRPFFFSRVIREGFQAYELDESDDETRERARRLGEAIIYPMLERIKSISAGEAAYEDTVIDVEDREAAEEFIRHLVRLGVSATLADYRDGRATIRRFYQSTTDRINNYLKGGLY
notes: as for B1
On to B2, for which the Michaelis-Menten constant (Km) (10 mM bis-Tris propane pH 8.5, 65°C) came out at 60 µM.
